Experimental data published in EP4628097A1 (Innovent Biologics (Suzhou) Co., Ltd., dated 2025).

What was measured:
human Ang2 [1] = biological target: T1, human Ang2 (human, UniProt O15123 19-496, limits assumed); assay: ELISA, relative binding activity; IEX04-012 about 40 mg/mL in F9, 40 C, 0 weeks
T1 construct: Bought proteins; also called hAng2-biotin; Ang2-Bio (Sino)
T1 sequence (looked up): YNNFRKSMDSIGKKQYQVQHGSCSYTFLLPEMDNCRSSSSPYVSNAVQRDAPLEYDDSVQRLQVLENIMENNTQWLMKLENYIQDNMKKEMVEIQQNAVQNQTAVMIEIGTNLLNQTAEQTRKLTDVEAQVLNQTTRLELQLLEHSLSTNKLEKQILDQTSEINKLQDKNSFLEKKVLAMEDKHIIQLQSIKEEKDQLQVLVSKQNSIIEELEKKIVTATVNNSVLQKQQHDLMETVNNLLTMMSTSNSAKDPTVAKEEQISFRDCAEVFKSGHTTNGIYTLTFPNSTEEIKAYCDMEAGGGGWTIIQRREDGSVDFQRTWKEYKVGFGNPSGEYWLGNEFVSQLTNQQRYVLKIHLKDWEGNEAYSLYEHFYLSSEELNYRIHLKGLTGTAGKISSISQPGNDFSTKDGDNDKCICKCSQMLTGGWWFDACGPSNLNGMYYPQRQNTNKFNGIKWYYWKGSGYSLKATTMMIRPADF

human VEGF165 [2] = biological target: T2, human VEGF165 (human, UniProt P15692-4 27-191); assay: as above
T2 construct: all are put under this molecule; also called VEGF A; VEGFA
T2 sequence (P15692 other isoform, or with tags, fused parts or gaps limits assumed): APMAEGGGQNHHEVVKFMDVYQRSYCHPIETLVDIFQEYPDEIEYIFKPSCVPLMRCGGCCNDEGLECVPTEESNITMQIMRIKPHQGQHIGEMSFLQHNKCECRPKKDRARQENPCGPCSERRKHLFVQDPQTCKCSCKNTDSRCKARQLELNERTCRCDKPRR

human Ang2 [3] = biological target: T1, human Ang2; assay: ELISA, relative binding activity; IEX04-012 about 40 mg/mL in F2, 40 C, 2 weeks
human VEGF165 [4] = biological target: T2, human VEGF165; assay: as above
human Ang2 [5] = biological target: T1, human Ang2; assay: ELISA, relative binding activity; IEX04-012 about 40 mg/mL in F6, 40 C, 1 week
human VEGF165 [6] = biological target: T2, human VEGF165; assay: as above
human Ang2 [7] = biological target: T1, human Ang2; assay: ELISA, relative binding activity; 120 mg/mL formula, 2-8 C, 12M
human VEGF165 [8] = biological target: T2, human VEGF165; assay: as above
human Ang2 [9] = biological target: T1, human Ang2; assay: ELISA, relative binding activity; IEX04-012 about 40 mg/mL in F10, 40 C, 1 week
human VEGF165 [10] = biological target: T2, human VEGF165; assay: as above
human Ang2 [11] = biological target: T1, human Ang2; assay: ELISA, relative binding activity; IEX04-012 about 40 mg/mL in F5, 40 C, 0 weeks
human VEGF165 [12] = biological target: T2, human VEGF165; assay: as above
human Ang2 [13] = biological target: T1, human Ang2; assay: ELISA, relative binding activity; final formula 40 mg/mL, 2-8 C, 12M
human VEGF165 [14] = biological target: T2, human VEGF165; assay: as above
human Ang2 [15] = biological target: T1, human Ang2; assay: ELISA, relative binding activity; final formula 40 mg/mL, 2-8 C, 6M
human VEGF165 [16] = biological target: T2, human VEGF165; assay: as above
human Ang2 [17] = biological target: T1, human Ang2; assay: ELISA, relative binding activity; final formula 40 mg/mL, 40 C, 2W
human VEGF165 [18] = biological target: T2, human VEGF165; assay: as above
human Ang2 [19] = biological target: T1, human Ang2; assay: ELISA, relative binding activity; IEX04-012 about 40 mg/mL in F9, 40 C, 2 weeks
human VEGF165 [20] = biological target: T2, human VEGF165; assay: as above
human Ang2 [21] = biological target: T1, human Ang2; assay: ELISA, relative binding activity; final formula 40 mg/mL, 40 C, 4W
human VEGF165 [22] = biological target: T2, human VEGF165; assay: as above
human Ang2 [23] = biological target: T1, human Ang2; assay: ELISA, relative binding activity; IEX04-012 about 40 mg/mL in F8, 40 C, 1 week
human VEGF165 [24] = biological target: T2, human VEGF165; assay: as above
human Ang2 [25] = biological target: T1, human Ang2; assay: ELISA, relative binding activity; final formula 40 mg/mL, T0
human VEGF165 [26] = biological target: T2, human VEGF165; assay: as above

B1: IEX04-012 (bispecific antibody)
chain: DIQLTQSPSSLSASVGDRVTITCSASQDISNYLNWYQQKPGKAPKVLIYFTSSLHSGVPSRFSGSGSGTDFTLTISSLQPEDFATYYCQQYSTVPWTFGCGTKVEIKGGGGSGGGGSGGGGSGGGGSEVQLVESGGGLVQPGGSLRLSCAASGYDFTHYGMNWVRQAPGKCLEWVGWINTYTGEPTYAADFKRRFTFSLDTSKSTAYLQMNSLRAEDTAVYYCAKYPYYYGTSHWYFDVWGQGTLVTVSSGGGGSGGGGSGGGGSEVQLLESGGGLVQPGGSLRLSCAASGFALDYYAIGWFRQAPGKGLEGVSCISSGEGSTYYADSVKGRFTISRDNSKNTVYLQMNSLRAEDTAVYYCATDSRGDDVACEGLRRNEYDYWGQGTLVTVSS
B1 was tested, and the Relative binding Activity to Ang2 (ELISA, %) (human Ang2 [1]) was 100%, the Relative binding Activity to VEGF (ELISA, %) (human VEGF165 [2]) was 100% and the Relative binding Activity to Ang2 (ELISA, %) (human Ang2 [3]) was 102%. For the same binder, the Relative binding Activity to VEGF (ELISA, %) (human VEGF165 [4]) was 99%, the Relative binding Activity to Ang2 (ELISA, %) (human Ang2 [5]) was 96% and the Relative binding Activity to VEGF (ELISA, %) (human VEGF165 [6]) was 98%. It also gave a Relative binding Activity to Ang2 (ELISA, %) (human Ang2 [7]) of 104%, a Relative binding Activity to VEGF A (ELISA, %) (human VEGF165 [8]) of 104% and a Relative binding Activity to Ang2 (ELISA, %) (human Ang2 [9]) of 98%. For the same binder, the Relative binding Activity to VEGF (ELISA, %) (human VEGF165 [10]) was 99%, the Relative binding Activity to Ang2 (ELISA, %) (human Ang2 [11]) was 100% and the Relative binding Activity to VEGF (ELISA, %) (human VEGF165 [12]) was 100%. For the same binder, the Relative binding Activity to Ang2 (ELISA, %) (human Ang2 [13]) was 96%, the Relative binding Activity to VEGF A (ELISA, %) (human VEGF165 [14]) was 100% and the Relative binding Activity to Ang2 (ELISA, %) (human Ang2 [15]) was 100%. The Relative binding Activity to VEGF A (ELISA, %) (human VEGF165 [16]) was 99%, the Relative binding Activity to Ang2 (ELISA, %) (human Ang2 [17]) was 86% and the Relative binding Activity to VEGF A (ELISA, %) (human VEGF165 [18]) was 91%. The Relative binding Activity to Ang2 (ELISA, %) (human Ang2 [19]) was 90%, the Relative binding Activity to VEGF (ELISA, %) (human VEGF165 [20]) was 99% and the Relative binding Activity to Ang2 (ELISA, %) (human Ang2 [21]) was 74%. It also gave a Relative binding Activity to VEGF A (ELISA, %) (human VEGF165 [22]) of 78%, a Relative binding Activity to Ang2 (ELISA, %) (human Ang2 [23]) of 92% and a Relative binding Activity to VEGF (ELISA, %) (human VEGF165 [24]) of 101%. The Relative binding Activity to Ang2 (ELISA, %) (human Ang2 [25]) was 95% and the Relative binding Activity to VEGF A (ELISA, %) (human VEGF165 [26]) was 103%.
